From patent US20130280763A1 (IMBA INSTITUT FUR MOLEKULARE BIOTECHNOLOGIE, published 2013)
Changes are numbered by the printed parent chain.

T1: HSPC117, Q9Y3I0
T1 chain: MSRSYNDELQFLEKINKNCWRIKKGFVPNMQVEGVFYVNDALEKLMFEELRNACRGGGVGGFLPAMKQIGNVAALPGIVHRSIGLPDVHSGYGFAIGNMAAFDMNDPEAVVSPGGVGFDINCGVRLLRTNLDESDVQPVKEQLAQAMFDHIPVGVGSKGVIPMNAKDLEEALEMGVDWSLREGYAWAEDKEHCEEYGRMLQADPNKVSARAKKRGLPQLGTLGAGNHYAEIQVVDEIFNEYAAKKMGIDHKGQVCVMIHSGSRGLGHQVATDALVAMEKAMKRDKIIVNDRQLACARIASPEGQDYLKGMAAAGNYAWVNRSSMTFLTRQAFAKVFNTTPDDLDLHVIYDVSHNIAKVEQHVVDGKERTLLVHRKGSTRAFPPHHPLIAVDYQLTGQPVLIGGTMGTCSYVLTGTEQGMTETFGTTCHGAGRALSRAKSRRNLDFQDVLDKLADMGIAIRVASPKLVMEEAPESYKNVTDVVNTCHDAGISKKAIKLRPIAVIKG

T2: recombinant Archease D39A
T2 chain: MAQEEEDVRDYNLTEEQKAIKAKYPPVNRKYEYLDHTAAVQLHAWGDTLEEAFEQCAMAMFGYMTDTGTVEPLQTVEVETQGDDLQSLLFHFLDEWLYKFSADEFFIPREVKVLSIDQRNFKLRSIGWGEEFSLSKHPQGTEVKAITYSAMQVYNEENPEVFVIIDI

T3: recombinant Archease K144A
T3 chain: T2 chain with A39D, K144A

T4: recombinant wild-type Archease
T4 chain: T2 chain with A39D

T5: DDX1 (human, UniProt Q92499 1-740)
T5 construct: Endogenous protein that co-purifies from cell extract
T5 sequence (looked up): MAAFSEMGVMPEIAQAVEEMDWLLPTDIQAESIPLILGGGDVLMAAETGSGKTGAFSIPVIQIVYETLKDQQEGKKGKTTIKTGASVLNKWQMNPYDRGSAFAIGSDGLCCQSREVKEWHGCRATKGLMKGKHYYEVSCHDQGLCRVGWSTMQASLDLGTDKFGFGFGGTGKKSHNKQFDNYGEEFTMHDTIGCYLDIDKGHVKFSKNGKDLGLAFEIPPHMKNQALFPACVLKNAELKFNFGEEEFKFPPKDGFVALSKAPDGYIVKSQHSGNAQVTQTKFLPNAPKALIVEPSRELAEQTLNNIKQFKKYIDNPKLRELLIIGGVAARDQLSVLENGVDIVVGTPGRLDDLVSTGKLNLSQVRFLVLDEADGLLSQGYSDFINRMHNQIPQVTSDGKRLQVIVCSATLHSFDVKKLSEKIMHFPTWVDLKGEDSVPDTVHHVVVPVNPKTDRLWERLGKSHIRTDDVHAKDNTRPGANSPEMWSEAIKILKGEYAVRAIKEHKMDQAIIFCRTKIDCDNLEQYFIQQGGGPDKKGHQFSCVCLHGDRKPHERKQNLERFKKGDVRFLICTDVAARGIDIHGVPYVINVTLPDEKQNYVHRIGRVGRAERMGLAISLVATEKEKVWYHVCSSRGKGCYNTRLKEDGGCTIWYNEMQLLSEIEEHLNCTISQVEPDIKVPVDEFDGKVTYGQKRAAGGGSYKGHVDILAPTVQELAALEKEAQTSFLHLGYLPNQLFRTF

T6: ASW (human, UniProt Q9BVC5 1-232, limits assumed)
T6 construct: Endogenous protein that co-purifies from cell extract
T6 sequence (looked up): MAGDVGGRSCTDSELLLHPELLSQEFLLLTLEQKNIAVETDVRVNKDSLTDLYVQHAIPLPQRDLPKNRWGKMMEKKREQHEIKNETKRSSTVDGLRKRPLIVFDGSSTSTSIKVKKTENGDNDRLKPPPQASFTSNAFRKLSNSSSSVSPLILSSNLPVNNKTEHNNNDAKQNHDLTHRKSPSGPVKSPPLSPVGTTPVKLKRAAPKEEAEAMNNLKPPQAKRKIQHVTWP

B1: FLAG-DDX1 (protein)
chain: T5 sequence (looked up)
B2: FLAG-tagged HSPC117 (enzyme, human, UniProt Q9Y3I0 1-505, looked up)
chain: T1 chain
notes: also called FLAG-HSPC117; FLAG-RTCB; not shown: FLAG tag
B3: CGI-99 (other, human, UniProt Q9Y224 1-244, looked up)
chain: MFRRKLTALDYHNPAGFNCKDETEFRNFIVWLEDQKIRHYKIEDRGNLRNIHSSDWPKFFEKYLRDVNCPFKIQDRQEAIDWLLGLAVRLEYGDNAEKYKDLVPDNSKTADNATKNAEPLINLDVNNPDFKAGVMALANLLQIQRHDDYLVMLKAIRILVQERLTQDAVAKANQTKEGLPVALDKHILGFDTGDAVLNEAAQILRLLHIEELRELQTKINEAIVAVQAIIADPKTDHRLGKVGR
notes: Endogenous protein that co-purifies from cell extract
B4: FLAG-tagged Archease (other)
chain: T2 chain with A39D
notes: also called FLAG-Archease; not shown: FLAG tag
B5: Archease (other)
chain: AQEEEDVRDYNLTEEQKAIKAKYPPVNRKYEYLDHTADVQLHAWGDTLEEAFEQCAMAMFGYMTDTGTVEPLQTVEVETQGDDLQSLLFHFLDEWLYKFSADEFFIPREVKVLSIDQRNFKLRSIGWGEEFSLSKHPQGTEVKAITYSAMQVYNEENPEVFVIIDI
notes: Endogenous untagged Archease in the cells from which FLAG-HSPC117 was purified

Assays:
HSPC117, Q9Y3I0 = molecular target: T1, HSPC117, Q9Y3I0
[1] = molecular target: T2, recombinant Archease D39A
[2] = molecular target: T3, recombinant Archease K144A
[3] = molecular target: T4, recombinant wild-type Archease
DDX1 [4] = molecular target: T5, DDX1; test: FLAG affinity purification, co-purifying proteins on a gel (FIG. 1A)
FLAG-tagged HSPC117 [5] = molecular target: B2; test: as above
DDX1 [6] = molecular target: T5, DDX1; test: FLAG affinity purification at 150 mM NaCl, Coomassie stained gel (FIG. 4A)
Procedure: (§1) A) Coomassie Blue stained preparations of FLAG-tagged Archease and HSPC117 affinity purified at 150 mM NaCl. B) RNA ligase activity assay of FLAG-HSPC117 and FLAG-Archease using pre-cleaved tRNA substrates. Extracts of HEK 293 cells were used as a negative control. * Indicates unspecific products.
(§2) Stable cell lines expressing a FLAG-tagged version of Archease and HSPC117 were generated to perform immuno-precipitations. Fluted FLAG-Archease was assayed for tRNA ligation in parallel with FLAG-HSPC117, which contains the entire tRNA ligase complex. […] RNA ligase activity was only detectable in reactions containing affinity-purified RNA ligase complex but not FLAG-tagged Archease (FIG. 4B).

ASW = molecular target: T6, ASW; test: as above
Procedure: as §1, §2

CGI-99 = molecular target: B3; test: as above
Procedure: as §1, §2

FLAG-tagged HSPC117 [7] = molecular target: B2; test: as above
Procedure: as §1, §2

How did the “Xbp1 ligation assay using FLAG-IPs” value (HSPC117, Q9Y3I0) turn out when B1 was run?
Its value is “ligation activity in FLAG-HSPC117 and FLAG-DDX1 IPs were observed”.

For B2, which “ligation of Xbp1 RNA minimal substrates” value [1] is on record?
Its value is “Addition of recombinant wild-type Archease but not its mutagenized versions strongly stimulated ligation of Xbp1 RNA minimal substrates”.

And the “ligation of Xbp1 RNA minimal substrates” value [2]?
Its value is “Addition of recombinant wild-type Archease but not its mutagenized versions strongly stimulated ligation of Xbp1 RNA minimal substrates”.

And the “ligation activity of affinity purified human tRNA ligase complex (pre-cleaved tRNA substrates, linear intron)” value [3]?
The value was “addition of recombinant Archease boosts ligation activity to a great extent (including circularization of the intron)”.

And the “ligation of Xbp1 RNA minimal substrates” value [3]?
Its value is “Addition of recombinant wild-type Archease but not its mutagenized versions strongly stimulated ligation of Xbp1 RNA minimal substrates”.

Does B2 bind (DDX1 [4])?
Result: binds

Does B3 bind (FLAG-tagged HSPC117 [5])?
Result: binds

Does B4 bind (DDX1 [6])?
Result: no binding

Does B4 bind (ASW)?
Result: no binding

Does B4 bind (CGI-99)?
Result: no binding

Does B5 bind (FLAG-tagged HSPC117 [7])?
Result: no binding
